Laboratory results taken from the supplement of paper PMC10065799, “High-throughput profiling of sequence recognition by tyrosine kinases and SH2 domains using bacterial peptide display” (eLife, 2023).

The sequences below were run against MERTK (UniProt Q12866) (assay: phosphorylation enrichment, bacterial display (enrichment ratio); higher = better substrate or ligand; peptides without Tyr show the background).
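Further: 11-residue human phosphosite peptides and single-mutation variants displayed on the E. coli surface, counted by deep sequencing, each peptide's frequency after selection divided by its frequency in the unselected input library; frequency after pTyr selection over input frequency; kinase dosed for 20-30% of maximal phosphorylation in three min.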

Chain of MERTK (Q12866 whole entry, looked up): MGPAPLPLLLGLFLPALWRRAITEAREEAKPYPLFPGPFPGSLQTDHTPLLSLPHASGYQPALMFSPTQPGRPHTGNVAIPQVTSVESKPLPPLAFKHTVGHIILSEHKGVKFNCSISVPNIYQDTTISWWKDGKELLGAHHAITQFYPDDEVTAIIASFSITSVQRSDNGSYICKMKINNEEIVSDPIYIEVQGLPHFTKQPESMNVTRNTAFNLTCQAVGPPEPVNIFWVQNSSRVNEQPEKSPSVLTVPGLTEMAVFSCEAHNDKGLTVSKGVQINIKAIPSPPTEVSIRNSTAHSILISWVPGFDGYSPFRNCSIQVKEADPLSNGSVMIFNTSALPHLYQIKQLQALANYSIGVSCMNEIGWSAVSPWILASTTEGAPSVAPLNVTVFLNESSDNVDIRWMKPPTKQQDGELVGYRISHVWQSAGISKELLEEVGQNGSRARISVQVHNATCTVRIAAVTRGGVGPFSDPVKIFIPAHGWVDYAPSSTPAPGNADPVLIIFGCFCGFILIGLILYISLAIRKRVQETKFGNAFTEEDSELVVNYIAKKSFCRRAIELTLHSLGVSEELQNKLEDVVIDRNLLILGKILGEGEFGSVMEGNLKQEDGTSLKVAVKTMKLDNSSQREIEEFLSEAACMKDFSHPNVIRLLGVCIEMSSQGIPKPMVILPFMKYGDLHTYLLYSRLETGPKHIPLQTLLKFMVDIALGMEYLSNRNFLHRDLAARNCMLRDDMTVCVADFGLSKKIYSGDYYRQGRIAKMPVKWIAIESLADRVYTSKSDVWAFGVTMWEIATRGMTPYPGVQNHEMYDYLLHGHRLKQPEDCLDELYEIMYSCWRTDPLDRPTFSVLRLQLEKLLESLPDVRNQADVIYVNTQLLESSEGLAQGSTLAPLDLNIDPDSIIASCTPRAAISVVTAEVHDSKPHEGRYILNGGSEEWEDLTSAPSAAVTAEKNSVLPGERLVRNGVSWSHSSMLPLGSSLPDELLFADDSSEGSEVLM

Sequence | phosphorylation enrichment
SRGLAYPARPA [LEMD2_Y122] | 0.339
LMIKEYLTKEL [BAG3_Y457_E455K] | 0.411
HSGIYYKPESL [L2HGDH_Y103] | 9.79
ELTSVYDSRAR [SENP1_Y349] | 0.52
CEDGNYSPEIS [PTDSS1_Y424_T423N] | 0.486
YVPSFYHAFSG [ACTN4_Y265_S262P] | 7.65
QRCFVYFFSFL [PTEN_Y176_R173C_YF] | 0.69
KKHIPYSEHKS [CSNK1G2_Y206_R207S] | 0.606
QISRDYGVLLE [PRDX3_Y172] | 0.64
SAEKAYHEQFS [TUBA1A_Y282_L286F] | 0.424
TIAIRYSHSRR [ACOXL_Y260] | 0.648
SLDLSYYTTSS [EMD_Y181_P183T] | 0.614
GTYEDYVEGLR [MYL6_Y89] | 0.513
VFLARYGPAWR [CYP2D6_Y124] | 0.472
KKYPDYIQIAR [SGMS2_Y59_M64R] | 0.392
IYHLSYHHNCE [PDE6B_Y227_L228H] | 3.55
VAVVDYVEPSP [TXNRD2_Y70] | 0.415
HPYNSYTYPRL [PAK5_Y316_S312P] | 2.57
EKQARYEIVEE [CDH5_Y223_V227E] | 0.644
RASGIYFVPKG [APBB1IP_Y340_YF] | 13.8
YRVAGYKTQGG [TIA1_Y383_E384K] | 0.312
ALEKTYNTYRS [B4GALNT2_Y538] | 0.312
GKTQQYDCKWY [BCR_Y751] | 0.515
GLCSYYETSKM [MAGED2_Y449_R446C] | 1.25
ILGRFYERGSI [PAX5_Y73_T75R_YF] | 0.395
GIADDYDKKKL [EIF1_Y54] | 0.383
HQEPVYSVAFS [TBL1X_Y509] | 14.5
VTRLRYPVCFG [ITK_Y336] | 0.471
QRIHNYYEHRY [HCN4_Y554_D553N] | 1.62

Each sequence was assayed on c-Abl (mouse) in the same assay as above.

Sequence | phosphorylation enrichment
SRGLAYPARPA [LEMD2_Y122] | 0.386
LMIKEYLTKEL [BAG3_Y457_E455K] | 0.666
HSGIYYKPESL [L2HGDH_Y103] | 27.1
ELTSVYDSRAR [SENP1_Y349] | 0.557
CEDGNYSPEIS [PTDSS1_Y424_T423N] | 0.785
YVPSFYHAFSG [ACTN4_Y265_S262P] | 1.06
QRCFVYFFSFL [PTEN_Y176_R173C_YF] | 1.3
KKHIPYSEHKS [CSNK1G2_Y206_R207S] | 1.53
QISRDYGVLLE [PRDX3_Y172] | 0.635
SAEKAYHEQFS [TUBA1A_Y282_L286F] | 0.454
TIAIRYSHSRR [ACOXL_Y260] | 0.655
SLDLSYYTTSS [EMD_Y181_P183T] | 0.976
GTYEDYVEGLR [MYL6_Y89] | 0.748
VFLARYGPAWR [CYP2D6_Y124] | 0.52
KKYPDYIQIAR [SGMS2_Y59_M64R] | 0.702
IYHLSYHHNCE [PDE6B_Y227_L228H] | 2.09
VAVVDYVEPSP [TXNRD2_Y70] | 0.627
HPYNSYTYPRL [PAK5_Y316_S312P] | 0.374
EKQARYEIVEE [CDH5_Y223_V227E] | 0.749
RASGIYFVPKG [APBB1IP_Y340_YF] | 34.3
YRVAGYKTQGG [TIA1_Y383_E384K] | 1.98
ALEKTYNTYRS [B4GALNT2_Y538] | 0.433
GKTQQYDCKWY [BCR_Y751] | 0.769
GLCSYYETSKM [MAGED2_Y449_R446C] | 0.955
ILGRFYERGSI [PAX5_Y73_T75R_YF] | 0.532
GIADDYDKKKL [EIF1_Y54] | 0.667
HQEPVYSVAFS [TBL1X_Y509] | 30.7
VTRLRYPVCFG [ITK_Y336] | 0.756
QRIHNYYEHRY [HCN4_Y554_D553N] | 0.791

What follows are sequences tested against FGFR1 (UniProt P11362) in the same assay as above.
Chain of FGFR1 (P11362 whole entry, looked up): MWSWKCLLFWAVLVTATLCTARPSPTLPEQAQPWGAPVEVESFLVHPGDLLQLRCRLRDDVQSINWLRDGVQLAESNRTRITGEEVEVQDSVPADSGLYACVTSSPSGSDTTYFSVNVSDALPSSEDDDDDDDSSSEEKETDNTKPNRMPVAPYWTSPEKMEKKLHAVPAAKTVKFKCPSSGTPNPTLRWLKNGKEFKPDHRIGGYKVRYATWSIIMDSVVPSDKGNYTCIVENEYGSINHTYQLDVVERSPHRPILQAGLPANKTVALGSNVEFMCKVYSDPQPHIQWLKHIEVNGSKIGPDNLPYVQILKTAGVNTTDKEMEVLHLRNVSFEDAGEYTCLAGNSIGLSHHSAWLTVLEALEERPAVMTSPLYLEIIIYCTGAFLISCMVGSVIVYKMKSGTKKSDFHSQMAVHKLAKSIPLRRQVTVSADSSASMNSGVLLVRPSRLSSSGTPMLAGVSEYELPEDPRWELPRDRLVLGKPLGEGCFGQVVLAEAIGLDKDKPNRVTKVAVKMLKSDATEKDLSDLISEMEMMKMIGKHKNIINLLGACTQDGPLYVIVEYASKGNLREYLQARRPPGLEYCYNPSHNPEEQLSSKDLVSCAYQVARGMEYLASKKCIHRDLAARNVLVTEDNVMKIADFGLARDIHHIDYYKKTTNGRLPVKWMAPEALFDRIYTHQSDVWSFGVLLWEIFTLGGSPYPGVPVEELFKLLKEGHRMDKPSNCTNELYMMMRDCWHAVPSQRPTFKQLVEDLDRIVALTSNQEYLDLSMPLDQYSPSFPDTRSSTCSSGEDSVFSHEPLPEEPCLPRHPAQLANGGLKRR

Sequence | phosphorylation enrichment
SRGLAYPARPA [LEMD2_Y122] | 0.34
LMIKEYLTKEL [BAG3_Y457_E455K] | 0.437
HSGIYYKPESL [L2HGDH_Y103] | 5.66
ELTSVYDSRAR [SENP1_Y349] | 0.491
CEDGNYSPEIS [PTDSS1_Y424_T423N] | 0.643
YVPSFYHAFSG [ACTN4_Y265_S262P] | 1.32
QRCFVYFFSFL [PTEN_Y176_R173C_YF] | 0.765
KKHIPYSEHKS [CSNK1G2_Y206_R207S] | 0.483
QISRDYGVLLE [PRDX3_Y172] | 0.523
SAEKAYHEQFS [TUBA1A_Y282_L286F] | 0.557
TIAIRYSHSRR [ACOXL_Y260] | 0.536
SLDLSYYTTSS [EMD_Y181_P183T] | 0.872
GTYEDYVEGLR [MYL6_Y89] | 0.617
VFLARYGPAWR [CYP2D6_Y124] | 0.468
KKYPDYIQIAR [SGMS2_Y59_M64R] | 3.97
IYHLSYHHNCE [PDE6B_Y227_L228H] | 1.32
VAVVDYVEPSP [TXNRD2_Y70] | 0.603
HPYNSYTYPRL [PAK5_Y316_S312P] | 0.998
EKQARYEIVEE [CDH5_Y223_V227E] | 0.506
RASGIYFVPKG [APBB1IP_Y340_YF] | 1.71
YRVAGYKTQGG [TIA1_Y383_E384K] | 0.434
ALEKTYNTYRS [B4GALNT2_Y538] | 0.391
GKTQQYDCKWY [BCR_Y751] | 0.464
GLCSYYETSKM [MAGED2_Y449_R446C] | 6.32
ILGRFYERGSI [PAX5_Y73_T75R_YF] | 0.413
GIADDYDKKKL [EIF1_Y54] | 0.465
HQEPVYSVAFS [TBL1X_Y509] | 4.88
VTRLRYPVCFG [ITK_Y336] | 0.467
QRIHNYYEHRY [HCN4_Y554_D553N] | 3.79

Each sequence was assayed against Jak2 (UniProt O60674) in the same assay as above.
Chain of Jak2 (O60674 whole entry, looked up): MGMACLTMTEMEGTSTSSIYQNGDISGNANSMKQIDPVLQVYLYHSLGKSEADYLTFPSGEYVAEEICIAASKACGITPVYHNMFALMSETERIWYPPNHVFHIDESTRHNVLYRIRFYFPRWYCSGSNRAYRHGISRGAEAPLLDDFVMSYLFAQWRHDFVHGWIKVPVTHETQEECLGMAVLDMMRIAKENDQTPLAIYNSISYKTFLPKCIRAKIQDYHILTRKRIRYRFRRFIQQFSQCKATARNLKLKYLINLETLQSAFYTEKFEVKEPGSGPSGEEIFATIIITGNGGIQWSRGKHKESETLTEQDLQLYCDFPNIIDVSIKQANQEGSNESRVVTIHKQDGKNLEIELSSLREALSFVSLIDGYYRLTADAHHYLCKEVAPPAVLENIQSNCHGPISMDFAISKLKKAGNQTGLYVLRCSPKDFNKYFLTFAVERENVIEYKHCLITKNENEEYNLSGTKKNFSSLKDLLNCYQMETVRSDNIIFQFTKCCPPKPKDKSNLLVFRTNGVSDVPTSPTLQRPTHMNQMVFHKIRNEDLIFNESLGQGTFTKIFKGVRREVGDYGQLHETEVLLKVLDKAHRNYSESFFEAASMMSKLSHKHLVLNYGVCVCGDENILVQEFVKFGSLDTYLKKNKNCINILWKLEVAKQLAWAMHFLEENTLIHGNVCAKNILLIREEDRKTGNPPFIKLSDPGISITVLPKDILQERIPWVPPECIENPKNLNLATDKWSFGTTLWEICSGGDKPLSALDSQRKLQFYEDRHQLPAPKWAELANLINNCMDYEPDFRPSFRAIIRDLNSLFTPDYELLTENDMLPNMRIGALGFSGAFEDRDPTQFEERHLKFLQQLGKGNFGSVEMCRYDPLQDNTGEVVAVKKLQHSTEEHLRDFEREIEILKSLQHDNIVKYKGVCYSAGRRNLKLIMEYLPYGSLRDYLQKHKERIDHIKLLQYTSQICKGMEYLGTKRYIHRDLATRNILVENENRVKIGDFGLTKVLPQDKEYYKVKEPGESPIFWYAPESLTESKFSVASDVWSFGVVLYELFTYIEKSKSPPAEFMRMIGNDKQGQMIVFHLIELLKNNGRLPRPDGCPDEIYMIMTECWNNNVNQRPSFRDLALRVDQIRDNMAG

Sequence | phosphorylation enrichment
SRGLAYPARPA [LEMD2_Y122] | 0.401
LMIKEYLTKEL [BAG3_Y457_E455K] | 0.896
HSGIYYKPESL [L2HGDH_Y103] | 2.35
ELTSVYDSRAR [SENP1_Y349] | 0.592
CEDGNYSPEIS [PTDSS1_Y424_T423N] | 0.975
YVPSFYHAFSG [ACTN4_Y265_S262P] | 0.794
QRCFVYFFSFL [PTEN_Y176_R173C_YF] | 2.19
KKHIPYSEHKS [CSNK1G2_Y206_R207S] | 1.37
QISRDYGVLLE [PRDX3_Y172] | 0.862
SAEKAYHEQFS [TUBA1A_Y282_L286F] | 0.663
TIAIRYSHSRR [ACOXL_Y260] | 0.785
SLDLSYYTTSS [EMD_Y181_P183T] | 1.45
GTYEDYVEGLR [MYL6_Y89] | 0.885
VFLARYGPAWR [CYP2D6_Y124] | 0.793
KKYPDYIQIAR [SGMS2_Y59_M64R] | 1.28
IYHLSYHHNCE [PDE6B_Y227_L228H] | 1.03
VAVVDYVEPSP [TXNRD2_Y70] | 0.912
HPYNSYTYPRL [PAK5_Y316_S312P] | 0.429
EKQARYEIVEE [CDH5_Y223_V227E] | 1.09
RASGIYFVPKG [APBB1IP_Y340_YF] | 2.91
YRVAGYKTQGG [TIA1_Y383_E384K] | 0.42
ALEKTYNTYRS [B4GALNT2_Y538] | 0.497
GKTQQYDCKWY [BCR_Y751] | 1.05
GLCSYYETSKM [MAGED2_Y449_R446C] | 1.3
ILGRFYERGSI [PAX5_Y73_T75R_YF] | 0.662
GIADDYDKKKL [EIF1_Y54] | 0.845
HQEPVYSVAFS [TBL1X_Y509] | 0.688
VTRLRYPVCFG [ITK_Y336] | 0.825
QRIHNYYEHRY [HCN4_Y554_D553N] | 0.724
